The record followed here is patent US20240150473A1 (SURROZEN OPERATING, published 2024).

Changes are numbered by the printed parent chain.

One test addresses LRP5 (human (Huh-7 human liver reporter …, UniProt O75197)). Description: cell-based or functional assay.
A further test has as its target LRP6 (human (Huh-7 human liver reporter …, UniProt O75581)). Description: cell-based or functional assay.
Test [1] addresses T1, biotinylated LRP6E3E4 (UniProt O75581 631-1246, limits assumed, biotinylated (site not stated)).
T1 construct: domain: E3E4; also called Lrp6E3E4 domain; Lrp6 receptor
T1 sequence (looked up): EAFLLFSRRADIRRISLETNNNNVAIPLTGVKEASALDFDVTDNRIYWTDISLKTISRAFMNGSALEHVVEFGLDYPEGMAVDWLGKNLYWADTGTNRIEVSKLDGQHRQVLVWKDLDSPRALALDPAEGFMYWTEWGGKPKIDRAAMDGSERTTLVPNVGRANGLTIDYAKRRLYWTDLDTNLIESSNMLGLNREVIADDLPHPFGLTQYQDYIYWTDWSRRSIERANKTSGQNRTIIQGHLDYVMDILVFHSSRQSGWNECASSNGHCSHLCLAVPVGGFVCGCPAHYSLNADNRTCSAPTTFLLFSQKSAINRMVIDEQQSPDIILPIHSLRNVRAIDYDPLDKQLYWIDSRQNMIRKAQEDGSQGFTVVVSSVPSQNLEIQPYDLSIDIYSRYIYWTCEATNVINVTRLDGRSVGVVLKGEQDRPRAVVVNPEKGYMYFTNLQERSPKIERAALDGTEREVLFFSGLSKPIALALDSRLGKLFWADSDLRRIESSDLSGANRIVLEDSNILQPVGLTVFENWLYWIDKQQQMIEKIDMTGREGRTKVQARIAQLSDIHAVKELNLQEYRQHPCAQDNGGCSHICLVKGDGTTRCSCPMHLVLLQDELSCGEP
As to the kind of experiment: BLI (Octet Red 96), biotinylated LRP6E3E4 on streptavidin sensor, 1:1 fit; SEC fraction C1. The procedure:
(§1) Proteins were purified using His-Complete resin (Roche, USA) following standard procedures. Expression levels and homogeneity of VHH26 and its humanized variants were analyzed by SDS-PAGE and SEC (size-exclusion chromatography). […] Biotinylated LRP6E3E4 diluted to 50 nM in the running buffer (PBS, 0.05% Tween-20, 0.5% BSA, pH 7.2) were captured to the SA biosensor followed by dipping into wells containing the indicated VHH26 proteins at different concentrations in running buffer or into a well with only running buffer as a reference channel. KD for each binder was calculated by Octet System software, based on fitting to a 1:1 binding model. Kinetics values (Kon, Koff, KD) from each experiment was calculated from seven technical replicates of different concentrations of the molecule tested with Octet Data Analysis 9.0 (PALL ForteBio, Fremont, CA).
(§2) Central fractions of each of these peaks were examined by Octect-BLI for their ability interact with Lrp6. Kinetics parameters such as kon, koff, and KD for interaction between VHH26 constructs and Lrp6E3E4 domain are listed in Table 2.

Test [2] has as its target T1, biotinylated LRP6E3E4. As to the kind of experiment: BLI (Octet Red 96), biotinylated LRP6E3E4 on streptavidin sensor, 1:1 fit; SEC fraction C3. As to the method: as §1, §2
Test [3] deals with T1, biotinylated LRP6E3E4. As to the kind of experiment: BLI (Octet Red 96), biotinylated LRP6E3E4 on streptavidin sensor, 1:1 fit; SEC fraction G1. The procedure: as §1, §2
In general terms: Biolayer interferometry detects binding as a change in optical thickness at a sensor tip.

Test [4] has as its target T1, biotinylated LRP6E3E4. As to the kind of experiment: BLI (Octet Red 96), biotinylated LRP6E3E4 on streptavidin sensor, 1:1 fit; SEC fraction G3. The procedure: as §1, §2
For the next test, the target named is T2, Fzd5 CRD (biotinylated) (UniProt Q13467 27-155, limits assumed, biotinylated (site not stated)).
T2 construct: domain: CRD
T2 sequence (looked up): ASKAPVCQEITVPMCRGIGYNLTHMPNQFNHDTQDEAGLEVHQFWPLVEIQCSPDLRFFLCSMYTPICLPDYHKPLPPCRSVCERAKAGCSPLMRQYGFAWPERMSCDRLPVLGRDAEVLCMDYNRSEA
Description: BLI (Octet Red 96), biotinylated Fzd5 CRD captured on SA biosensor, R2M13 as analyte at several concentrations, 1:1 fit; the legend paragraph 32 says IgG, the methods paragraph 311 say R2M13 Fab. The procedure:
(§3) Biotinylated CRDs of Fzds diluted to 25 nM in the running buffer (PBS, 0.05% Tween-20, 0.5% BSA, pH 7.2) were captured to the SA biosensor followed by dipping into wells containing the R2M13 Fab protein at different concentrations in running buffer or into a well with only running buffer as a reference channel. KD for each binder was calculated by Octet System software, based on fitting to a 1:1 binding model. Binding specificities of R2M13 IgG to 10 Fzds were also examined by the BLI assay. Biotinylated Fzd CRDs (H. Chen, Lu, Lee, & Li, 2020) diluted to 50 nM in the running buffer were captured to the SA biosensor followed by dipping into wells containing R2M13 IgG at 200 nM in running buffer.

Another test deals with T3, Fzd8 CRD (biotinylated) (UniProt Q9H461 28-155, limits assumed, biotinylated (site not stated)).
T3 construct: domain: CRD
T3 sequence (looked up): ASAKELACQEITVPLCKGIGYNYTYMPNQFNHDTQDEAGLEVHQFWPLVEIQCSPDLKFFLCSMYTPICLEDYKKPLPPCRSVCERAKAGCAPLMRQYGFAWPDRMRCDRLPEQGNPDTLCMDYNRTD
As to the kind of experiment: BLI (Octet Red 96), biotinylated Fzd8 CRD captured on SA biosensor, R2M13 as analyte at several concentrations, 1:1 fit; the legend paragraph 33 says IgG, the methods paragraph 311 say R2M13 Fab. As to the method: as §3

Test [5] deals with T1, biotinylated LRP6E3E4. As to the kind of experiment: BLI (Octet Red 96), biotinylated LRP6E3E4 on streptavidin sensor, 1:1 fit; SEC fraction D3 (first block). As to the method: as §1, §2
Test [6] concerns the target T1, biotinylated LRP6E3E4. As to the kind of experiment: BLI (Octet Red 96), biotinylated LRP6E3E4 on streptavidin sensor, 1:1 fit; SEC fraction D3 (second block). As to the method:
as §1, §2

Chain of LRP6 (human (O75581 20-1613 limits assumed): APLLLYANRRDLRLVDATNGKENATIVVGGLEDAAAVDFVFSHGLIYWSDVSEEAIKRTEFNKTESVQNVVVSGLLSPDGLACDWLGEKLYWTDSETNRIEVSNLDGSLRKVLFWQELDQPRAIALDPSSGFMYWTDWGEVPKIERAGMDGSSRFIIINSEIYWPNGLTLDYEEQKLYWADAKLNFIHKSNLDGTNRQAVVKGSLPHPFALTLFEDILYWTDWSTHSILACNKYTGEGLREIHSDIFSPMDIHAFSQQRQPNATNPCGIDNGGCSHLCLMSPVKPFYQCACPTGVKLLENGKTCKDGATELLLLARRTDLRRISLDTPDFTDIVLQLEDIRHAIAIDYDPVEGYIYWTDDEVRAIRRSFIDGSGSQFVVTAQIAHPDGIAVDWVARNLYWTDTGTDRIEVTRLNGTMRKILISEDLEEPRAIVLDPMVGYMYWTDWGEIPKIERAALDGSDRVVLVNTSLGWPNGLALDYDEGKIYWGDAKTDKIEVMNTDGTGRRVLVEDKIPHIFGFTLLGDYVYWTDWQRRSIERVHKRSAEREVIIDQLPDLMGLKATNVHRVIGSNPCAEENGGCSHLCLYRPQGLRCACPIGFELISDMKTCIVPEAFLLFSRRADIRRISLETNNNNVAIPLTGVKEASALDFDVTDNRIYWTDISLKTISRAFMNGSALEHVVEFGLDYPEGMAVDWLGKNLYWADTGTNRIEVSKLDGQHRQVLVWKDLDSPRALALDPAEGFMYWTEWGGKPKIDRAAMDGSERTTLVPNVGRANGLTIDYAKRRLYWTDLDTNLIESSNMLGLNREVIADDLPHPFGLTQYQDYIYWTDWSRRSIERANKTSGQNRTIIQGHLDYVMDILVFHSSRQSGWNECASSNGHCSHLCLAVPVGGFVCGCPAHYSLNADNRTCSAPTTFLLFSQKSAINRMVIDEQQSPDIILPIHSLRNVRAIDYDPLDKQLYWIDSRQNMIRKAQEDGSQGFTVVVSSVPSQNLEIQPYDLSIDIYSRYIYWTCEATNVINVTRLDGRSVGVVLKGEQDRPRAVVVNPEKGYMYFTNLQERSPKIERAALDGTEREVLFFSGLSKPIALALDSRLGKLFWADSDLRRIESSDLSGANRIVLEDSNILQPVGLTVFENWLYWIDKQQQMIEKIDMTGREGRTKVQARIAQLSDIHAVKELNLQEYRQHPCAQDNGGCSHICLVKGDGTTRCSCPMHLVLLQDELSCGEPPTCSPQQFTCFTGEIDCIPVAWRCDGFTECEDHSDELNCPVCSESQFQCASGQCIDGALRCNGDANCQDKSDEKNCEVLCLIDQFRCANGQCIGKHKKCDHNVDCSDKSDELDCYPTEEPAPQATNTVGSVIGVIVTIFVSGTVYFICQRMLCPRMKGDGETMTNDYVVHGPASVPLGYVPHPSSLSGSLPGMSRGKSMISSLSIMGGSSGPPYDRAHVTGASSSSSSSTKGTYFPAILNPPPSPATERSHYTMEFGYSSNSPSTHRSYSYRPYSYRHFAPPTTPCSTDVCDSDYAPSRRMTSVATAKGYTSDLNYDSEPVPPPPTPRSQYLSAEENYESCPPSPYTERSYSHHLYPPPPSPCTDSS
Chain of LRP5 (human (O75197 32-1615 limits assumed): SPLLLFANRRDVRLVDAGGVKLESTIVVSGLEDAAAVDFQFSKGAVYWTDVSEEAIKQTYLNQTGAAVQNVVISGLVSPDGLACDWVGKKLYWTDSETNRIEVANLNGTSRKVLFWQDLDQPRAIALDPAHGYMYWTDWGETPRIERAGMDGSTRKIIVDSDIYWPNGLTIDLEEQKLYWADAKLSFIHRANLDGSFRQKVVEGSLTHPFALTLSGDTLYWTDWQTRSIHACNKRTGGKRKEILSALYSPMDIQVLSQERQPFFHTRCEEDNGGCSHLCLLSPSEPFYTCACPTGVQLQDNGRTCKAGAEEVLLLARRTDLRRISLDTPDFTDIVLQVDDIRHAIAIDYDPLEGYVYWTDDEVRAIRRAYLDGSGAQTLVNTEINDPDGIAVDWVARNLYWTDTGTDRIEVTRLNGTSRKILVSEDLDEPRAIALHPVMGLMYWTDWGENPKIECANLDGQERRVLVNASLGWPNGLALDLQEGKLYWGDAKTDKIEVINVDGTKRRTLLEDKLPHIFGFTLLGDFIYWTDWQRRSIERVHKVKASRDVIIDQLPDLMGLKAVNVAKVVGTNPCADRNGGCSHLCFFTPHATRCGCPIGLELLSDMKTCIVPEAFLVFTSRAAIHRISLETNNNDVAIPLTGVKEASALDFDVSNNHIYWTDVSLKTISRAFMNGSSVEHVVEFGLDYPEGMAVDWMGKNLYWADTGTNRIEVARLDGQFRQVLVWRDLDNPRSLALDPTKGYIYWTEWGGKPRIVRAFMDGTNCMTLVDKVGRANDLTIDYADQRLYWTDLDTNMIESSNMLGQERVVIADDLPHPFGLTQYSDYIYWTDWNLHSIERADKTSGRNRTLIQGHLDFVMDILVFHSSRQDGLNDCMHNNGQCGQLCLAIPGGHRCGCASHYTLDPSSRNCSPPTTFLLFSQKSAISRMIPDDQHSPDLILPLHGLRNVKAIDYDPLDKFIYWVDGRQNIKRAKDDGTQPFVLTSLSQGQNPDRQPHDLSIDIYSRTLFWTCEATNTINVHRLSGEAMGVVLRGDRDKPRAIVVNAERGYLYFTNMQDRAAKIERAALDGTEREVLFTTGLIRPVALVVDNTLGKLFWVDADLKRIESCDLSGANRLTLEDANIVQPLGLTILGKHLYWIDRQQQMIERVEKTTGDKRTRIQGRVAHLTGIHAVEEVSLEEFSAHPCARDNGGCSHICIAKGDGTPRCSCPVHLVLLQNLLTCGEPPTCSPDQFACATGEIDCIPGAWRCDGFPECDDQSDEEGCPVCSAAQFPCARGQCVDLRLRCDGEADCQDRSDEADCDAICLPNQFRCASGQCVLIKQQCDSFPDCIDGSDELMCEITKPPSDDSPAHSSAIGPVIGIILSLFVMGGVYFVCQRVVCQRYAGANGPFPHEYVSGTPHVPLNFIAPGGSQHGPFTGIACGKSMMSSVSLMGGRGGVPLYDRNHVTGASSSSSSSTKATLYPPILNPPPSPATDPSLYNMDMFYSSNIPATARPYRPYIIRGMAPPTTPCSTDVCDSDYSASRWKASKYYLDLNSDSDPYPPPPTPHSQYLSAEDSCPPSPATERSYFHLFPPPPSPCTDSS

B1: VHH03, Parental LALAPG (bispecific antibody)
heavy chain (R2M13 VH-IgG1 LALAPG): EVQLLQSGAEVKKPGSSVKVSCKASGGTFTYRYLHWVRQAPGQGLEWMGGIIPIFGTGNYAQKFQGRVTITADESTSTAYMELSSLRSEDTAVYYCASSMVRVPYYYGMDVWGQGTLVTVSSASTKGPSVFPLAPSSKSTSGGTAALGCLVKDYFPEPVTVSWNSGALTSGVHTFPAVLQSSGLYSLSSVVTVPSSSLGTQTYICNVNHKPSNTKVDKKVEPKSCDKTHTCPPCPAPEAAGGPSVFLFPPKPKDTLMISRTPEVTCVVVDVSHEDPEVKFNWYVDGVEVHNAKTKPREEQYNSTYRVVSVLTVLHQDWLNGKEYKCKVSNKALGAPIEKTISKAKGQPREPQVYTLPPSREEMTKNQVSLTCLVKGFYPSDIAVEWESNGQPENNYKTTPPVLDSDGSFFLYSKLTVDKSRWQQGNVFSCSVMHEALHNHYTQKSLSLSPGK
light chain (VHH03-linker-R2M13 light chain): not shown
For the molecule B1, in the test with LRP5, the “EC50, Super TOPFlash (STF) luciferase reporter in Huh-7 STF cells; row LRP5 / VHH03, column Parental LALAPG EC50” value stood at 0.11 nM.

B2: R2M13-26 humanized LALAPG (R2M13-h26) (bispecific antibody)
heavy: B1 heavy chain (R2M13 VH-IgG1 LALAPG)
light: not shown
As to B2, in the test with LRP6, the “EC50, Super TOPFlash (STF) luciferase reporter in Huh-7 STF cells; row LRP6 / VHH26, column Humanized LALAPG EC50” value stood at 0.63 nM.

B3: VHH03, Humanized LALAPG (bispecific antibody)
heavy chain (R2M13 VH-IgG1 LALAPG): B1 heavy chain (R2M13 VH-IgG1 LALAPG)
light chain (humanized VHH03-linker-R2M13 light chain): not shown
As to B3, the “EC50, Super TOPFlash (STF) luciferase reporter in Huh-7 STF cells; row LRP5 / VHH03, column Humanized LALAPG EC50” value with LRP5 was 1.8 nM.

B4: VHH36, Parental LALAPG (bispecific antibody, human IgG1, kappa, L234A L235A)
heavy chain (R2M13 VH-IgG1 LALAPG): B1 heavy chain (R2M13 VH-IgG1 LALAPG)
light chain (VHH36-linker-R2M13 light chain): not shown
Consider B4, for which the “EC50, Super TOPFlash (STF) luciferase reporter in Huh-7 STF cells; row LRP5&6 / VHH36, column Parental LALAPG EC50 (nM); one value given for both LRP5 and LRP6” value with LRP5 and with LRP6 was 0.06 nM each time.

B5: VHH26, Parental LALAPG (bispecific antibody)
heavy chain (R2M13 VH-IgG1 LALAPG): B1 heavy chain (R2M13 VH-IgG1 LALAPG)
light chain (VHH26-linker-R2M13 light chain): not shown
Consider B5, for which, in the test with LRP6, the “EC50, Super TOPFlash (STF) luciferase reporter in Huh-7 STF cells; row LRP6 / VHH26, column Parental LALAPG EC50” value came to 1.1 nM.

B6: VHH36, Humanized LALAPG (bispecific antibody, human IgG1, kappa, L234A L235A)
heavy chain (R2M13 VH-IgG1 LALAPG): B1 heavy chain (R2M13 VH-IgG1 LALAPG)
light chain (humanized VHH36-linker-R2M13 light chain): not shown
Turning to B6, the “EC50, Super TOPFlash (STF) luciferase reporter in Huh-7 STF cells; row LRP5&6 / VHH36, column Humanized LALAPG EC50 (nM); one value given for both LRP5 and LRP6” value in the test with LRP5 and in the test with LRP6 was 1.2 nM in each case.

B7: VHH26-H3 (VHH)
VHH: EVQLVESGGGLVQPGGSLRLSCAGSGRIFAIYDIAWYRQAPGKGREWVAMIRPVVTEIDYADSVKGRFTISRDNSKNTVYLQMNSLRAEDTAVYYCNAKRPWGSRDEYWGQGTTVTVSS
notes: Expressed in Expi293 cells with a C-terminal hexa-histidine tag; two SEC peaks were tested separately
Consider B7, for which the figures for the Kd with biotinylated LRP6E3E4 [1] and with biotinylated LRP6E3E4 [2] were 3200 nM and 422 nM, respectively.

B8: VHH26-H4 (VHH)
VHH: B7 VHH with W47L
notes: as for B7
For the molecule B8, the Kd (usually the constant that tells how readily two partners part at equilibrium) with biotinylated LRP6E3E4 [3] amounted to 662 nM; in the test with biotinylated LRP6E3E4 [4] it was 192 nM.

B9: VHH26-H2 (VHH)
VHH: B7 VHH with R45L
notes: as for B7
On to B9, for which the values for the Kd with biotinylated LRP6E3E4 [3] and with biotinylated LRP6E3E4 [4] were 441 nM and 280 nM, respectively.

B10: VHH26-H5 (VHH)
VHH: B7 VHH with N77K
notes: as for B7
With B10, the Kd with biotinylated LRP6E3E4 [1] turned out to be 41 nM; with biotinylated LRP6E3E4 [2] it was 109 nM.

B11: VHH26-H6 (VHH)
VHH: B7 VHH with W47L, N77K
notes: as for B7
Take B11: the dissociation constant (Kd) with biotinylated LRP6E3E4 [3] is 687 nM; with biotinylated LRP6E3E4 [4] it was 486 nM.

B12: VHH26-H1 (VHH)
VHH: B7 VHH with V5L, G24A, Y37V, R45L, A49S, V79L, N97A, A98K
notes: as for B7
In the case of B12, the Kd with biotinylated LRP6E3E4 [2] worked out at 281 nM.

B13: R2M13 IgG (the Fzd5,8 binder IgG of R2M13-26) (antibody, V domains shown)
VH: EVQLLQSGAEVKKPGSSVKVSCKASGGTFTYRYLHWVRQAPGQGLEWMGGIIPIFGTGNYAQKFQGRVTITADESTSTAYMELSSLRSEDTAVYYCASSMVRVPYYYGMDVWGQGTLVTVSS
VL: not shown
notes: also called R2M13 antibody
Regarding B13, the Kd with Fzd5 CRD (biotinylated) amounted to 57.5 nM; with Fzd8 CRD (biotinylated), 98.5 nM.

B14: VHH26 (parental) (VHH)
VHH: DVQLVESGGGLVQAGGSLRLACAGSGRIFAIYDIAWYRHPPGNQRELVAMIRPVVTEIDYADSVKGRFTISRNNAMKTVYLQMNNLKPEDTAVYYCNAKRPWGSRDEYWGQGTQVTVSS
notes: Expressed in Expi293 cells with a C-terminal hexa-histidine tag; also called VHH26_His; parental VHH26
In the case of B14, the Kd in the test with biotinylated LRP6E3E4 [5] stood at 17 nM; with biotinylated LRP6E3E4 [6], 22 nM.
